Assay results taken from patent US20260092091A1.

Biological target: CXCR2 expressed on 300-19 pre-B cells
Assay: cell-based or functional assay

chemotaxis in Boyden chambers (Transwell), optimal concentration: 50 nM | transendothelial migration in Boyden chambers (EA.hy 926 monolayer), optimal concentration: 50 nM
Substance: human wild-type GCP-2 (granulocyte chemotactic protein 2, CXCL6), recombinant (from UniProt P80162 38-114) (ligand)
